Reference: patent US20210101977A1

Columns and labels:
[1] = target: cynomolgus monkey CD96 on activated primary cynomolgus T cells (cynomolgus monkey); test: flow cytometry (MFI against concentration), activated primary cynomolgus T cells
[2] = target: full-length isoform 1 of human CD96 (SEQ ID NO: 127) expressed on CHO cells (human) (UniProt P40200); test: flow cytometry (MFI against concentration), CHO cells expressing human CD96 isoform 1
[3] = target: full-length isoform 2 of human CD96 (SEQ ID NO: 128) expressed on cells (human) (UniProt P40200); test: flow cytometry (MFI against concentration), CHO cells expressing human CD96 isoform 2
[4] = target: full-length isoform 2 of human CD96 (SEQ ID NO: 128) expressed on cells (human) (UniProt P40200); test: flow cytometry (MFI against concentration), Jurkat cells expressing human CD96 isoform 2
[5] = target: isoform 2 of cynomolgus monkey CD96 (SEQ ID NO: 133) expressed on CHO cells (cynomolgus monkey); test: flow cytometry (MFI against concentration), CHO cells expressing cynomolgus CD96 isoform 2

Area under the curve (AUC) [1]: 1270
Area under the curve (AUC) [2]: 43500
Area under the curve (AUC) [3]: 5810
Area under the curve (AUC) [4]: 4760
Area under the curve (AUC) [5]: 6030
Substance: IgG1 isotype control antibody
